Measured values published in patent US9708375 (Amgen, dated 2017).
Residue numbers refer to the chain shown, from its start. Names and notes keep the numbering of the source.

T1: biotin labeled human recombinant Sclerostin (human, UniProt Q9BQB4 24-213)
T1 construct: also called human Sclerostin; huSOST
T1 sequence (looked up): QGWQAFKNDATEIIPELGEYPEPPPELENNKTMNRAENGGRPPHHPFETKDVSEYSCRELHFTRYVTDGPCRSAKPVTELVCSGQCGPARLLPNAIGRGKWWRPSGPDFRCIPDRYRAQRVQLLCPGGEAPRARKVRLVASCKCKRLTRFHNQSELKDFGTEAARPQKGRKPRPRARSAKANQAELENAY

T2: human recombinant Dkk-1 (human, UniProt O94907 32-266)
T2 construct: also called human Dkk-1; human Dkk1
T2 sequence (looked up): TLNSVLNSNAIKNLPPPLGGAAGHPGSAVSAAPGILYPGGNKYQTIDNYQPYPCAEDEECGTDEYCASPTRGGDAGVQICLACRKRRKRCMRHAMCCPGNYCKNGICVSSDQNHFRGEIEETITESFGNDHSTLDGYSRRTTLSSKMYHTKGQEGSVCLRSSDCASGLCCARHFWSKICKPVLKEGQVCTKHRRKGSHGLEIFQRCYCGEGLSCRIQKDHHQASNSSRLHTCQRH

B1: P7077 (bispecific antibody, human IgG2, lambda)
heavy: QVQLVESGGGVVQPGRSLRLSCAASGFTFSRYDMHWVRQAPGKGLEWVAIIFYDGSNKYYADPVKGRFTISRDNSKNTLYLQMNSLRAEDTAVYYCATLAAAFDYWGQGTLVTVSSASTKGPSVFPLAPCSRSTSESTAALGCLVKDYFPEPVTVSWNSGALTSGVHTFPAVLQSSGLYSLSSVVTVPSSNFGTQTYTCNVDHKPSNTKVDKTVERKCCVECPPCPAPPVAGPSVFLFPPKPKDTLMISRTPEVTCVVVDVSHEDPEVQFNWYVDGVEVHNAKTKPREEQFNSTFRVVSVLTVVHQDWLNGKEYKCKVSNKGLPAPIEKTISKTKGQPREPQVYTLPPSREEMTKNQVSLTCLVKGFYPSDIAVEWESNGQPENNYKTTPPMLDSDGSFFLYSKLTVDKSRWQQGNVFSCSVMHEALHNHYTQKSLSLSPGKSSGGSCGRDHFRCRSYDKCVPAHWLCDGVLDCLDSSDETYCSAPASEPPGSLCPAYTEFLCKDSDRCFPSEWRCDGEMDCVDGSDELHCAYHTSLQ
light: YVLTQPPSVSVAPGQTARITCGGNNIGSKSVHWYQQKPGQAPVLVVYDDSDRPSEIPERFSGSNSGNTATLTISRVEAGDEADYYCQVWDSSSDHVVFGGGTRLTVLGQPKAAPSVTLFPPSSEELQANKATLVCLISDFYPGAVTVAWKADSSPVKAGVETTTPSKQSNNKYAASSYLSLTPEQWKSHRSYSCQVTHEGSTVEKTVAPTECS
notes: also called P6888; Ab-Avimer-4 (P7077A)
B2: P7651 (bispecific antibody, human IgG2, lambda)
heavy: B1 heavy with G449A, R450P, D451N, H452Q, R456N, L467V, Y482N, K504A
light: B1 light
notes: also called C140161
B3: P7654 (bispecific antibody, human IgG2, lambda)
heavy: QVQLVESGGGVVQPGRSLRLSCAASGFTFSRYDMHWVRQAPGKGLEWVAIIFYDGSNKYYADPVKGRFTISRDNSKNTLYLQMNSLRAEDTAVYYCATLAAAFDYWGQGTLVTVSSASTKGPSVFPLAPCSRSTSESTAALGCLVKDYFPEPVTVSWNSGALTSGVHTFPAVLQSSGLYSLSSVVTVPSSNFGTQTYTCNVDHKPSNTKVDKTVERKCCVECPPCPAPPVAGPSVFLFPPKPKDTLMISRTPEVTCVVVDVSHEDPEVQFNWYVDGVEVHNAKTKPREEQFNSTFRVVSVLTVVHQDWLNGKEYKCKVSNKGLPAPIEKTISKTKGQPREPQVYTLPPSREEMTKNQVSLTCLVKGFYPSDIAVEWESNGQPENNYKTTPPMLDSDGSFFLYSKLTVDKSRWQQGNVFSCSVMHEALHNHYTQKSLSLSPGKSSGGSCAPNQFACNSYDKCVPAHWVCDGVLDCLDSSDETNCSAPASEPPGSLCPAYTEFLCADSDACFPSEWACDGEMDCVDGSDELHCAYHTSLQ
light: B1 light
notes: also called C140164
B4: P7656 (bispecific antibody, human IgG2, lambda)
heavy: QVQLVESGGGVVQPGRSLRLSCAASGFTFSRYDMHWVRQAPGKGLEWVAIIFYDGSNKYYADPVKGRFTISRDNSKNTLYLQMNSLRAEDTAVYYCATLAAAFDYWGQGTLVTVSSASTKGPSVFPLAPCSRSTSESTAALGCLVKDYFPEPVTVSWNSGALTSGVHTFPAVLQSSGLYSLSSVVTVPSSNFGTQTYTCNVDHKPSNTKVDKTVERKCCVECPPCPAPPVAGPSVFLFPPKPKDTLMISRTPEVTCVVVDVSHEDPEVQFNWYVDGVEVHNAKTKPREEQFNSTFRVVSVLTVVHQDWLNGKEYKCKVSNKGLPAPIEKTISKTKGQPREPQVYTLPPSREEMTKNQVSLTCLVKGFYPSDIAVEWESNGQPENNYKTTPPMLDSDGSFFLYSKLTVDKSRWQQGNVFSCSVMHEALHNHYTQKSLSLSPGKSSGGSCAPNQFRCNSYDKCVPAHWVCDGVLDCLDSSDETNCGGGGSGGGGSCPAYTEFLCKDSDRCFPSEWRCDGEMDCVDGSDELHC
light: B1 light
notes: also called C140166
B5: P7069 (bispecific antibody, human IgG2, lambda)
heavy: QVQLVESGGGVVQPGRSLRLSCAASGFTFSRYDMHWVRQAPGKGLEWVAIIFYDGSNKYYADPVKGRFTISRDNSKNTLYLQMNSLRAEDTAVYYCATLAAAFDYWGQGTLVTVSSASTKGPSVFPLAPCSRSTSESTAALGCLVKDYFPEPVTVSWNSGALTSGVHTFPAVLQSSGLYSLSSVVTVPSSNFGTQTYTCNVDHKPSNTKVDKTVERKCCVECPPCPAPPVAGPSVFLFPPKPKDTLMISRTPEVTCVVVDVSHEDPEVQFNWYVDGVEVHNAKTKPREEQFNSTFRVVSVLTVVHQDWLNGKEYKCKVSNKGLPAPIEKTISKTKGQPREPQVYTLPPSREEMTKNQVSLTCLVKGFYPSDIAVEWESNGQPENNYKTTPPMLDSDGSFFLYSKLTVDKSRWQQGNVFSCSVMHEALHNHYTQKSLSLSPGKSSGGSCPAYTEFLCKDSDRCFPSEWRCDGEMDCVDGSDELHCAYHTCAPNQFRCNSYDKCVPAHWVCDGVLDCLDSSDETNCSAPASEPPGSLSLQ
light: B1 light
notes: also called P6991; Ab-Avimer-2 (P7069A)
B6: P7070 (bispecific antibody, human IgG2, lambda)
heavy: QVQLVESGGGVVQPGRSLRLSCAASGFTFSRYDMHWVRQAPGKGLEWVAIIFYDGSNKYYADPVKGRFTISRDNSKNTLYLQMNSLRAEDTAVYYCATLAAAFDYWGQGTLVTVSSASTKGPSVFPLAPCSRSTSESTAALGCLVKDYFPEPVTVSWNSGALTSGVHTFPAVLQSSGLYSLSSVVTVPSSNFGTQTYTCNVDHKPSNTKVDKTVERKCCVECPPCPAPPVAGPSVFLFPPKPKDTLMISRTPEVTCVVVDVSHEDPEVQFNWYVDGVEVHNAKTKPREEQFNSTFRVVSVLTVVHQDWLNGKEYKCKVSNKGLPAPIEKTISKTKGQPREPQVYTLPPSREEMTKNQVSLTCLVKGFYPSDIAVEWESNGQPENNYKTTPPMLDSDGSFFLYSKLTVDKSRWQQGNVFSCSVMHEALHNHYTQKSLSLSPGKSSGGSWCPPNHFMCNSYDKCVPAHWFCDGVLDCLDSSDETNCSAPASEPPGSLCPAYTEFLCKDSDRCFPSEWRCDGEMDCVDGSDELHCAYHTSLQ
light: B1 light
notes: also called P6992; Ab-Avimer-3 (P7070A)
B7: P7078 (bispecific antibody, human IgG2, lambda)
heavy: SGGSWCPPNHFMCNSYDKCVPAHWFCDGVLDCLDSSDETNCSAPASEPPGSLCPAYTEFLCKDSDRCFPSEWRCDGEMDCVDGSDELHCAYHTSQVQLVESGGGVVQPGRSLRLSCAASGFTFSRYDMHWVRQAPGKGLEWVAIIFYDGSNKYYADPVKGRFTISRDNSKNTLYLQMNSLRAEDTAVYYCATLAAAFDYWGQGTLVTVSSASTKGPSVFPLAPCSRSTSESTAALGCLVKDYFPEPVTVSWNSGALTSGVHTFPAVLQSSGLYSLSSVVTVPSSNFGTQTYTCNVDHKPSNTKVDKTVERKCCVECPPCPAPPVAGPSVFLFPPKPKDTLMISRTPEVTCVVVDVSHEDPEVQFNWYVDGVEVHNAKTKPREEQFNSTFRVVSVLTVVHQDWLNGKEYKCKVSNKGLPAPIEKTISKTKGQPREPQVYTLPPSREEMTKNQVSLTCLVKGFYPSDIAVEWESNGQPENNYKTTPPMLDSDGSFFLYSKLTVDKSRWQQGNVFSCSVMHEALHNHYTQKSLSLSPGK
light: B1 light
notes: also called P6886; Ab-Avimer-5 (P7078A)
B8: P7649 (bispecific antibody, human IgG2, lambda)
heavy: QVQLVESGGGVVQPGRSLRLSCAASGFTFSRYDMHWVRQAPGKGLEWVAIIFYDGSNKYYADPVKGRFTISRDNSKNTLYLQMNSLRAEDTAVYYCATLAAAFDYWGQGTLVTVSSASTKGPSVFPLAPCSRSTSESTAALGCLVKDYFPEPVTVSWNSGALTSGVHTFPAVLQSSGLYSLSSVVTVPSSNFGTQTYTCNVDHKPSNTKVDKTVERKCCVECPPCPAPPVAGPSVFLFPPKPKDTLMISRTPEVTCVVVDVSHEDPEVQFNWYVDGVEVHNAKTKPREEQFNSTFRVVSVLTVVHQDWLNGKEYKCKVSNKGLPAPIEKTISKTKGQPREPQVYTLPPSREEMTKNQVSLTCLVKGFYPSDIAVEWESNGQPENNYKTTPPMLDSDGSFFLYSKLTVDKSRWQQGNVFSCSVMHEALHNHYTQKSLSLSPGSSGGSCAPNQFRCNSYDKCVPAHWVCDGVLDCLDSSDETNCSAPASEPPGSLCPAYTEFLCKDSDRCFPSEWRCDGEMDCVDGSDELHCAYHTSLQ
light: B1 light
notes: also called C140159
B9: P7650 (bispecific antibody, human IgG2, lambda)
heavy: B8 heavy with A448G, P449R, N450D, Q451H, N455R, V466L, N481Y
light: B1 light
notes: also called C140160

Legend:
[1] = molecular target: T1, biotin labeled human recombinant …; experiment: AlphaScreen Sclerostin/LRP-6 inhibition
human recombinant Dkk-1 = molecular target: T2, human recombinant Dkk-1; experiment: AlphaScreen Dkk-1/LRP-6 inhibition

Binder	binding result [1]	binding result (human recombinant Dkk-1)
B1	binds	
B2	binds	
B3	binds	
B4	binds	
CPASYFQCRNNNHCYPMEWRCDGFQDCEDGSDEKGCPYRT (designed binder) [C4229]		binds
CPSNEFMCADKMCFPLIFLCDGENDCEDGSDEVDCPSRT (designed binder) [C4234]		binds
B5	binds	
B6	binds	
B7	binds	
B8	binds	
B9	binds	
